# In IntAct's records for PubMed 20494986:
# B1: Type 3 secretion system chaperone PscG (Pseudomonas aeruginosa (strain ATCC 15692 / PAO1 / 1C / PRS 101 / LMG 12228)), P95435 (parent)
# chain: MDTSLIRELAELALAGSGQHCHEEALCIAEWLERLGQDEAARLIRISSLANQGRYQEALAFAHGNPWPALEPWFALCEWHLGLGAALDRRLAGLGGSSDPALADFAAGMRAQVRT
# partner: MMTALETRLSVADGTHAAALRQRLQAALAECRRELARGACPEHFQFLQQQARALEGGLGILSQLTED
# B2: Type 3 secretion system chaperone PscE (Pseudomonas aeruginosa (strain ATCC 15692 / PAO1 / 1C / PRS 101 / LMG 12228)), Q9I317 (parent)
# chain: B1 partner
# partner: B1 chain
# Variants of: B1
# Conditions: with psce_pseae pscE, Q9I317
row,Variant,effect of a mutation on the interaction
1,MDTSLIRESAELALAGSGQHCHEEALCIAEWLERLGQDEAARLIRISSLANQGRYQEALAFAHGNPWPALEPWFALCEWHLGLGAALDRRLAGLGGSSDPALADFAAGMRAQVRT [L9S],decreasing interaction
2,MDTSLIRELAELALAGSGQHCHEEALCSAEWLERLGQDEAARLIRISSLANQGRYQEALAFAHGNPWPALEPWFALCEWHLGLGAALDRRLAGLGGSSDPALADFAAGMRAQVRT [I28S],decreasing interaction
3,MDTSSIRESAELALAGSGQHCHEEALCIAEWLERLGQDEAARLIRISSLANQGRYQEALAFAHGNPWPALEPWFALCEWHLGLGAALDRRLAGLGGSSDPALADFAAGMRAQVRT [L5S;L9S],decreasing interaction
4,MDTSLIRELAELALAGSGQHCHEEALCSAESLERLGQDEAARLIRISSLANQGRYQEALAFAHGNPWPALEPWFALCEWHLGLGAALDRRLAGLGGSSDPALADFAAGMRAQVRT [I28S;W31S],decreasing interaction
5,MDTSSIRELAELALAGSGQHCHEEALCIAEWLERLGQDEAARLIRISSLANQGRYQEALAFAHGNPWPALEPWFALCEWHLGLGAALDRRLAGLGGSSDPALADFAAGMRAQVRT [L5S],decreasing interaction

# Variants of: B2
# Conditions: with pscg_pseae pscG, P95435
row,Variant,effect of a mutation on the interaction
1,MMTALETRLSVADGTHAAASRQRLQAALAECRRELARGACPEHFQFLQQQARALEGGLGILSQLTED [L20S],decreasing interaction
2,MMTALETRLSVADGTHAAALRQRLQAALAECRRELARGACPEHFQFLQQQARALEGDLGILSQLTED [G57D],disrupting interaction
